From the supplement of paper PMC9170038

Legend:
MS2 coat protein [1] = assay: apparent KD of MS2 coat protein, switch OFF state (with FMN for OFF switches, without FMN for ON switches); designed switch direction (-1 OFF switch, 1 ON switch): 1; higher = weaker reporter binding; conditions: FMN input: 0 or 200 uM; Eterna round: R93 (includes R88 designs)
Summary of the method: (§1)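 Each design's apparent KD comes from the median of binding-curve fits to its normalised clusters. Those clusters carried RNA switches transcribed on-chip from Illumina sequencing clusters. SNAP-549-labelled MS2 coat protein was titrated onto them in twofold steps (0.7 or 1.5 nM to 3 µM; per step 0.8–1.5 h down to 10–20 min). Conditions were 100 mM Tris-HCl pH 7.5, 80 mM KCl, 4 mM MgCl2, without or with constant ligand.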

MS2 coat protein [2] = assay: apparent KD of MS2 coat protein, switch ON state; designed switch direction (-1 OFF switch, 1 ON switch): 1; higher = weaker reporter binding; conditions: FMN input: 0 or 200 uM; Eterna round: R93 (includes R88 designs)
Summary of the method: as §1

Sequence	apparent KD of MS2 coat protein (MS2 coat protein [1]) [nM]	apparent KD of MS2 coat protein (MS2 coat protein [2]) [nM]
CGGAGACAUGAGGAUCACCCAUGUGAGAAGAGGCGAGGAUAUCGAAAGAAAGAAGAGAAACGAGAAGGCGCGAGCG [salish99-SS1-076]	42.4	32.8
AUAAAACAUGAGGAUCACCCAUGUAGACAUAUGGGAGGAUAUACUAGAUCGAAAGAUCUAGUAGAAGGCCUUUAUA [JL Mod of Eli 8]	54.2	19.2
UGGAGACAUGAGGAUCACCCAUGUGAGAAGAGGCGAGGAUAUCGAAAAAAAAAAAAAAAACGAGAAGGCGCGAGAC [salish99-SS1-010]	41.2	33.3
AGAAAUAAAUCUCAGGAUAUGGGUAAAUAAACAUGAGGAUCACCCAUGUAAAAGAAAAUAAAAAACCAGAAGGGAGAAAAUAAGA [Designing denovo 2]	39.2	16.2
GGGAGGAAGAGAGAGGAUAUCCAAAGGAAAACAUGAGGAUCACCCAUGUAAAAGGUAGGAAAUUGGGAGAAGGCUCAAAAGACGG [salish99-ss2-047]	52.5	28.1
CGCGAACAUGAGGAUCACCCAUGUAAAUCGCAUGUAGGAUAUGGGAAACACAUUAAGAUCCCAGAAGGGCGGAAAA [Anquve]	31.2	41.3
UUACAGCACGGGUAGGAUAUGUAGGGUGGUACAUGAGGAUCACCCAUGUAUCCACCCUUCUAACGGCAGAAGGGCCUGUCGCUGC [Riarve]	15.4	16.9
AAAUUACAUGAGGAUCACCCAUGUAGCGACGUUACAGGAUAUGUGGGUGAAAAUAGCAUGACAGAAGGGUACCGUA [SameState1 Malc#39]	60.8	77
GACGAACAUGAGGAUCACCCAUGUCAAAACGGACAAGGAUAUGUGUGGAAACCGUACUAUACAGAAGGUGUCUGUC [SS1 - 98]	21.3	16.1
GAAGACAUAGUUCAGGAUAUAGGAAUAGUCACAUGAGGAUCACCCAUGUGCAUUUAUAUGCGCGCUUAGAAGGGAGGUAGAUAUA [SameState2 Malc#20]	20.8	23.8
GAAAAUAAAAGACAGGAUAUCCAAAAGAAAACAUGAGGAUCACCCAUGUAAAGAAAAUAAAAAUGGGAGAAGGGUCAAAUAAAAG [Mat - Same State 2 - JL mod - D52]	56.6	64.8
AUAUAUAUAAGGUAGGAUAUCCAAUAAACCACAUGAGGAUCACCCAUGUAAAGAAAGAAAAAAUGGGAGAAGGACCAUAUAUAUA [77%, More Tesla, 6]	27.5	15.4
AAAGAAAAACUAGAGGAUAUCCAAGUGGUAACAUGAGGAUCACCCAUGUGAAGAAAGGAGCAUGAGGAGAAGGCUAGAAGAAAAA [JL Nando mod 25]	82.3	19.2
AAACCACAUGAGGAUCACCCAUGUAGAAAUAUGGGAGGAUAUACGAAAACGAAAGUCAAAGUAGAAGGCCUAAAAG [saturn 2]	129	36.7
AGACAUAACAGAGAGGAUAUCCAAAAGAAAACAUGAGGAUCACCCAUGUGAAAGAAAAUAAAAUGGGAGAAGGCUCACAUACAGA [Topaz 37]	39	20
CGGAGACAUGAGGAUCACCCAUGUGAGAAGAGGCGAGGAUAUCGAAAGAAAGAAGAGAAACGAGAAGGCGCGAGGC [salish99-SS1-079]	41.2	21.1
GGGAGGAAGAGAGAGGAUAUCCAAAGGAAAACAUGAGGAUCACCCAUGUAAAAGGUAGGAAAUUGGGAGAAGGCUCAAAAGAGGA [salish99-ss2-039]	30.3	31.3
GAGGACCUAGGAUAGGAUAUGUGAAAAAUUACAUGAGGAUCACCCAUGUCCAUUUAUAUGGGAACAUAGAAGGGUUCUGGUUAUC [Mat - Same state - Malcolm Mod - D150]	61.6	35.7
AAGAAACAUGAGGAUCACCCAUGUGAUAAUAUGGGAGGAUAUACAAGGACGUAAGUCAAGGUAGAAGGCCUAAGAA [Mat - Same State 1 - Meechl mod - D140]	61.6	30.5
AAAAUACAUGAGGAUCACCCAUGUGAAAAUAUGGGAGGAUAUCAUGGAAAAAAAAAAACAUGAGAAGGCCCAAAAA [SS! 1 MT 10]	104	24.8
AAGAAAGUUUACGAGGAUAUGUUCCGCAGAACAUGAGGAUCACCCAUGUGAACACGAAGUGCGACGCAGAAGGCGUGAGCAAUGA [Isenmaqu]	130	34.5
